This note sets out measurements from US20220064294A1 (ARCUS BIOSCIENCES, published 2022).

Assay [1] deals with T1, human TIGIT, full length, on cells (human, UniProt Q495A1 22-244).
T1 construct: also called hTIGIT; hTIGIT-CHO
T1 sequence: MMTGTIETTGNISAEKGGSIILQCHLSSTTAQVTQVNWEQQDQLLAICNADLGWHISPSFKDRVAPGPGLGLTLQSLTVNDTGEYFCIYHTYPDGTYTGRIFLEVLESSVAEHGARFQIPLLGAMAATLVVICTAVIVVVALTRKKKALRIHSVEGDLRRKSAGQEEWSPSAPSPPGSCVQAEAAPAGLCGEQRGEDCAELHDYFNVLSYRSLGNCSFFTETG
Nature of the assay: flow cytometry, inhibition of hCD155-hFc binding to hTIGIT-CHO-K1 cells. How it is done:
(§1) These clones were further expanded, and antibodies were purified using a Protein G column. These purified antibodies were tested for binding to human and cyno TIGIT expressed on cell surface by flow cytometry. Stable CHO-K1 cell lines expressing full length human TIGIT clone 2A7 (Swiss-Prot Q495A1; SEQ ID NO: 80) or full length cyno TIGIT clone C10 (Swiss-Prot A0A2K5UW92; SEQ ID NO: 84) were developed. For the flow assay, cells were collected and incubated in 100 μL of HBSS buffer in the presence (or absence) of various concentrations of antibodies for 1 hr at 4° C. After washing with HBSS, antibody binding on cells was detected with 2 μg/mL of Alexa488-labeled goat anti-mouse IgG antibody (ThermoFisher Scientific, Cat #A-11001) for 30 min at 4° C. Cells were then washed and resuspended in PBS and subjected to flow cytometry using an Attune NxT flow cytometer (ThermoFisher Scientific, Waltham, Mass.). The geometric mean of the fluorescence intensity was obtained for the whole single cell population. Antibodies capable of binding to both human and cyno TIGIT expressed on cell surface were further tested for their blocking activity against recombinant human CD155 binding to human TIGIT on the surface of CHO cells. CHO-hTIGIT cells (10⁵ cells) were incubated with 2.5 μg/mL hCD155-Fc protein in the presence of various concentrations of antibody at room temperature for 1 hr. […] Cells were then washed and subjected to flow cytometry analysis.
(§2) The binding capability of these chimera anti-TIGIT antibodies to cell surface overexpressed human and cyno TIGIT was confirmed utilizing the flow cytometry assay previously described. After incubation of chimera anti-TIGIT antibody with hTIGIT-CHO or cTIGIT-CHO, bound antibody was detected using Alexa488 conjugated goat anti-human IgG antibody (ThermoFisher Scientific, Cat #A-11013). Antibody functional activity in inhibiting recombinant hCD155-hFc binding to hTIGIT-CHO-K1 cells was also determined using flow assay as previously described.
For orientation: Flow cytometry measures light scatter and fluorescence of single cells or particles in a stream.

Assay [2] concerns the target T2, cynomolgus monkey TIGIT, full length, on cells (cynomolgus monkey).
T2 construct: Whole entry of 312 amino acids; also called cyno TIGIT; cTIGIT
As to the kind of experiment: flow cytometry on cTIGIT-CHO cells. How it is done: as §1, §2

The target of assay [3] is T1, human TIGIT, full length, on cells. As to the kind of experiment: flow cytometry, endogenous TIGIT on isolated human CD4+ T cells. Here is the method:
(§3) The ability of chimera anti-TIGIT antibodies to bind to endogenously expressed TIGIT on isolated human CD4⁺ and CD8⁺ cells was tested using a flow cytometry assay. Human CD4⁺ or CD8⁺ T cells were isolated from human whole blood using RosetteSep™ Human CD4⁺ T cell Enrichment Cocktail (Stemcell, Cat #15022) or Human CD8⁺ T cell enrichment Cocktail (Stemcell, […]), respectively. […] However, differences in max binding activity (MFImax) was observed between clones.

The target in assay [4] is T3, hTIGIT-His (human).
T3 construct: also called His-tagged human TIGIT protein extracellular domain; soluble hTIGIT-His
T3 chain: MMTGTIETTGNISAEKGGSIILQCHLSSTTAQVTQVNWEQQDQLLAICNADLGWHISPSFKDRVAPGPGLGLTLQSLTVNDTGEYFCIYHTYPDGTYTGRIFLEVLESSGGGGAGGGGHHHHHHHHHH
As to the kind of experiment: SPR, Biacore T200, antibody captured on anti-human IgG chip, hTIGIT-His as analyte. Here is the method:
(§4) The purified, full-length antibodies Hu24F8.1-IgG1.AA (containing VH1+VL2) and Hu24F8.2-IgG1.AA (containing VH2+VL2), together with the full-length chimera antibody of 24F8 mouse VH+VL and human IgG1/kappa constant domains (Ch24F8), were analyzed by SPR using a Biacore T200 instrument with antibody capture using an anti-human IgG coated chip and soluble hTIGIT-His or cTIGIT-His as the analyte.
(Surface plasmon resonance follows binding to a sensor surface in real time, without labels.)

Assay [5] has as its target T4, cTIGIT-His (cynomolgus monkey).
T4 construct: also called His-tagged cyno TIGIT protein extracellular domain; soluble cTIGIT-His
T4 chain: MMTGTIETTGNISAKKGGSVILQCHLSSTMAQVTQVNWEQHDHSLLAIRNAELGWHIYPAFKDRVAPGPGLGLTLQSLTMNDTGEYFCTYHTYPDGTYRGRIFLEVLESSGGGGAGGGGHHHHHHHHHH
As to the kind of experiment: SPR, Biacore T200, antibody captured on anti-human IgG chip, cTIGIT-His as analyte. Here is the method:
as §4

For assay [6], the target named is T5, soluble His-tagged TIGIT (Acro Biosystems, Cat #No. TIT-H52H3) (human, UniProt Q495A1 22-141).
T5 construct: Bought protein; also called His-tagged human TIGIT
T5 sequence (looked up): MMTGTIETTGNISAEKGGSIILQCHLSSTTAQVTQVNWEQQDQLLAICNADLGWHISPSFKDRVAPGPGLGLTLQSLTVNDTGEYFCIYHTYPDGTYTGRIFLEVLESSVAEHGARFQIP
Nature of the assay: SPR, ProteOn XPR36, antibody on Protein A chip, soluble His-tagged TIGIT as analyte, 25 C. Here is the method:
The kinetic binding of these recombinant anti-TIGIT antibodies to human TIGIT was determined by surface plasmon resonance (SPR) using a Bio-Rad ProteOn XPR36 instrument. Recombinant antibodies were immobilized using a Protein A coated GLC sensor chip, and soluble His-tagged TIGIT (Acro Biosystems, Cat #No. TIT-H52H3) was used as the analyte. The binding constants were determined at 25° C.

In assay [7] the target is T1, human TIGIT, full length, on cells. Nature of the assay: flow cytometry on hTIGIT-CHO cells. How it is done:
as §1, §2

Assay [8] has the same target. As to the kind of experiment: flow cytometry, endogenous TIGIT on isolated human CD8+ T cells. How it is done: as §3

Substitutions are numbered along the chain they refer to.

B1: Ch24F8 (antibody, human IgG1, V domains shown)
VH: DVQLQESGPDLVKPSQSLSLTCTVTGYSITSGYSWHWIRQFPGNKLDWMGYVHYSGSTNYNPSLKSRISITRDTSKNQFFLQLNSVTTEDTATFYCARMDYGNYGGAMDYWGQGTSVTVSS
VL: EIVMTQSHKFMSTSVGDRVSITCKASQDVRTAVAWYQQKPGQSPKLLIYSASYRYTGVPDRFTGSGSGTDFTFTISSVQAEDLAVYYCQQYYSTQWTFGGGTKLEIK
notes: also called full-length chimera antibody of 24F8 mouse VH+VL and human IgG1/kappa constant domains
As for B1, the half-maximal inhibitory concentration (IC50) – broadly, the concentration at which inhibition is half-maximal – in assay [1] stood at 0.62 nM. Further, the EC50 (usually the concentration needed to bring the measured effect to its halfway point) is 0.199 nM in assay [2], 0.13 nM in assay [3], 0.15 nM in assay [7] and 0.177 nM in assay [8]. The “CD4+ MFImax” value in assay [3] came out at 210 MFI. Moreover, the Kd (commonly the equilibrium constant for the complex coming apart) in assay [4] worked out at 0.183 nM; in assay [5], 1.66 nM; in assay [6], 0.035 nM. Also, the figures for the koff in assay [4], in assay [5] and in assay [6] were 0.000156 s⁻¹, 0.00109 s⁻¹ and 7.5e-05 s⁻¹, respectively. Also, the association rate constant (kon) – broadly, the second-order rate constant of association – in assay [4] came out at 853000 M⁻¹ s⁻¹; in assay [5] it was 658000 M⁻¹ s⁻¹; in assay [6], 2.15e+06 M⁻¹ s⁻¹. For the same molecule, the “CD8+ MFImax” value in assay [8] was determined as 5800 MFI.

B2: Ch30M18 (antibody, human IgG1, V domains shown)
VH: EVQLQQSGPELVKPGASVKISCKTSGYTFTEYTMHWVKQSHGKSLEWIGGINPNNGGTSYNQKFKGKATLTVDKSSSTAYMELRSLTSEDSAVYYCARSGHMDYGYVYWGQGTTLTVSS
VL: B1 VL with E1D, D28Y, R30S, A51P, Y91H, Q95P
notes: also called recombinant anti-TIGIT mouse/human chimera antibody 30M18
In assay [1], B2 showed an IC50 of 2.18 nM. Also, the concentration for a half-maximal effect (EC50) in assay [2] worked out at 6.14 nM. Also, in assay [3], the “CD4+ MFImax” value was determined as 125 MFI and a half-maximal effect (EC50) was put at 0.197 nM. Moreover, in assay [6], the Kd amounted to 2.38 nM; the dissociation rate constant (koff) – broadly, the rate constant with which the complex falls apart – worked out at 0.00173 s⁻¹; the kon stood at 727000 M⁻¹ s⁻¹. This molecule showed an EC50 in assay [7] of 0.336 nM. In assay [8], the “CD8+ MFImax” value turned out to be 3500 MFI and the EC50 amounted to 0.293 nM.
